Assay results taken from patent US20130259873A1.

Legend:
[1] = molecular target: high molecular weight melanoma associated antigen (HMW-MAA), also known as CSPG4 (human) (UniProt Q6UVK1); assay: flow cytometry, melanoma cell line M21 (BRAF V600E), PE-conjugated anti-mouse IgG
[2] = molecular target: high molecular weight melanoma associated antigen (HMW-MAA), also known as CSPG4 (human) (UniProt Q6UVK1); assay: flow cytometry, melanoma cell line 1287 (BRAF V600E), PE-conjugated anti-mouse IgG
[3] = molecular target: high molecular weight melanoma associated antigen (HMW-MAA), also known as CSPG4 (human) (UniProt Q6UVK1); assay: flow cytometry, melanoma cell line 836 (BRAF V600E), PE-conjugated anti-mouse IgG
[4] = molecular target: high molecular weight melanoma associated antigen (HMW-MAA), also known as CSPG4 (human) (UniProt Q6UVK1); assay: flow cytometry, melanoma cell line MV3 (BRAF wild type), PE-conjugated anti-mouse IgG
[5] = molecular target: high molecular weight melanoma associated antigen (HMW-MAA), also known as CSPG4 (human) (UniProt Q6UVK1); assay: flow cytometry, melanoma cell line Colo38 (BRAF V600E), PE-conjugated anti-mouse IgG
[6] = molecular target: high molecular weight melanoma associated antigen (HMW-MAA), also known as CSPG4 (human) (UniProt Q6UVK1); assay: flow cytometry, melanoma cell line 1495 (BRAF V600E), PE-conjugated anti-mouse IgG
[7] = molecular target: high molecular weight melanoma associated antigen (HMW-MAA), also known as CSPG4 (human) (UniProt Q6UVK1); assay: flow cytometry, melanoma cell line SK-MEL-37 (BRAF V600E), PE-conjugated anti-mouse IgG
[8] = molecular target: high molecular weight melanoma associated antigen (HMW-MAA), also known as CSPG4 (human) (UniProt Q6UVK1); assay: flow cytometry, melanoma cell line WM1158 (BRAF V600E), PE-conjugated anti-mouse IgG
[9] = molecular target: high molecular weight melanoma associated antigen (HMW-MAA), also known as CSPG4 (human) (UniProt Q6UVK1); assay: flow cytometry, melanoma cell line SK-MEL-28 (BRAF V600E), PE-conjugated anti-mouse IgG
[10] = molecular target: high molecular weight melanoma associated antigen (HMW-MAA), also known as CSPG4 (human) (UniProt Q6UVK1); assay: flow cytometry, melanoma cell line SK-MEL-5 (BRAF V600E), PE-conjugated anti-mouse IgG
[11] = molecular target: high molecular weight melanoma associated antigen (HMW-MAA), also known as CSPG4 (human) (UniProt Q6UVK1); assay: flow cytometry, melanoma cell line UACC-257 (BRAF V600E), PE-conjugated anti-mouse IgG
[12] = molecular target: high molecular weight melanoma associated antigen (HMW-MAA), also known as CSPG4 (human) (UniProt Q6UVK1); assay: flow cytometry, melanoma cell line SK-MEL-19 (BRAF V600E), PE-conjugated anti-mouse IgG
[13] = molecular target: high molecular weight melanoma associated antigen (HMW-MAA), also known as CSPG4 (human) (UniProt Q6UVK1); assay: flow cytometry, melanoma cell line 677 (BRAF V600E), PE-conjugated anti-mouse IgG
[14] = molecular target: high molecular weight melanoma associated antigen (HMW-MAA), also known as CSPG4 (human) (UniProt Q6UVK1); assay: flow cytometry, melanoma cell line Mel624 (BRAF V600E), PE-conjugated anti-mouse IgG
[15] = molecular target: high molecular weight melanoma associated antigen (HMW-MAA), also known as CSPG4 (human) (UniProt Q6UVK1); assay: flow cytometry, melanoma cell line M233 (BRAF V600E), PE-conjugated anti-mouse IgG
[16] = molecular target: high molecular weight melanoma associated antigen (HMW-MAA), also known as CSPG4 (human) (UniProt Q6UVK1); assay: flow cytometry, melanoma cell line 526 (BRAF V600E), PE-conjugated anti-mouse IgG

Sequence of high molecular weight melanoma associated antigen (HMW-MAA), also known as CSPG4 (human) (Q6UVK1 30-2322): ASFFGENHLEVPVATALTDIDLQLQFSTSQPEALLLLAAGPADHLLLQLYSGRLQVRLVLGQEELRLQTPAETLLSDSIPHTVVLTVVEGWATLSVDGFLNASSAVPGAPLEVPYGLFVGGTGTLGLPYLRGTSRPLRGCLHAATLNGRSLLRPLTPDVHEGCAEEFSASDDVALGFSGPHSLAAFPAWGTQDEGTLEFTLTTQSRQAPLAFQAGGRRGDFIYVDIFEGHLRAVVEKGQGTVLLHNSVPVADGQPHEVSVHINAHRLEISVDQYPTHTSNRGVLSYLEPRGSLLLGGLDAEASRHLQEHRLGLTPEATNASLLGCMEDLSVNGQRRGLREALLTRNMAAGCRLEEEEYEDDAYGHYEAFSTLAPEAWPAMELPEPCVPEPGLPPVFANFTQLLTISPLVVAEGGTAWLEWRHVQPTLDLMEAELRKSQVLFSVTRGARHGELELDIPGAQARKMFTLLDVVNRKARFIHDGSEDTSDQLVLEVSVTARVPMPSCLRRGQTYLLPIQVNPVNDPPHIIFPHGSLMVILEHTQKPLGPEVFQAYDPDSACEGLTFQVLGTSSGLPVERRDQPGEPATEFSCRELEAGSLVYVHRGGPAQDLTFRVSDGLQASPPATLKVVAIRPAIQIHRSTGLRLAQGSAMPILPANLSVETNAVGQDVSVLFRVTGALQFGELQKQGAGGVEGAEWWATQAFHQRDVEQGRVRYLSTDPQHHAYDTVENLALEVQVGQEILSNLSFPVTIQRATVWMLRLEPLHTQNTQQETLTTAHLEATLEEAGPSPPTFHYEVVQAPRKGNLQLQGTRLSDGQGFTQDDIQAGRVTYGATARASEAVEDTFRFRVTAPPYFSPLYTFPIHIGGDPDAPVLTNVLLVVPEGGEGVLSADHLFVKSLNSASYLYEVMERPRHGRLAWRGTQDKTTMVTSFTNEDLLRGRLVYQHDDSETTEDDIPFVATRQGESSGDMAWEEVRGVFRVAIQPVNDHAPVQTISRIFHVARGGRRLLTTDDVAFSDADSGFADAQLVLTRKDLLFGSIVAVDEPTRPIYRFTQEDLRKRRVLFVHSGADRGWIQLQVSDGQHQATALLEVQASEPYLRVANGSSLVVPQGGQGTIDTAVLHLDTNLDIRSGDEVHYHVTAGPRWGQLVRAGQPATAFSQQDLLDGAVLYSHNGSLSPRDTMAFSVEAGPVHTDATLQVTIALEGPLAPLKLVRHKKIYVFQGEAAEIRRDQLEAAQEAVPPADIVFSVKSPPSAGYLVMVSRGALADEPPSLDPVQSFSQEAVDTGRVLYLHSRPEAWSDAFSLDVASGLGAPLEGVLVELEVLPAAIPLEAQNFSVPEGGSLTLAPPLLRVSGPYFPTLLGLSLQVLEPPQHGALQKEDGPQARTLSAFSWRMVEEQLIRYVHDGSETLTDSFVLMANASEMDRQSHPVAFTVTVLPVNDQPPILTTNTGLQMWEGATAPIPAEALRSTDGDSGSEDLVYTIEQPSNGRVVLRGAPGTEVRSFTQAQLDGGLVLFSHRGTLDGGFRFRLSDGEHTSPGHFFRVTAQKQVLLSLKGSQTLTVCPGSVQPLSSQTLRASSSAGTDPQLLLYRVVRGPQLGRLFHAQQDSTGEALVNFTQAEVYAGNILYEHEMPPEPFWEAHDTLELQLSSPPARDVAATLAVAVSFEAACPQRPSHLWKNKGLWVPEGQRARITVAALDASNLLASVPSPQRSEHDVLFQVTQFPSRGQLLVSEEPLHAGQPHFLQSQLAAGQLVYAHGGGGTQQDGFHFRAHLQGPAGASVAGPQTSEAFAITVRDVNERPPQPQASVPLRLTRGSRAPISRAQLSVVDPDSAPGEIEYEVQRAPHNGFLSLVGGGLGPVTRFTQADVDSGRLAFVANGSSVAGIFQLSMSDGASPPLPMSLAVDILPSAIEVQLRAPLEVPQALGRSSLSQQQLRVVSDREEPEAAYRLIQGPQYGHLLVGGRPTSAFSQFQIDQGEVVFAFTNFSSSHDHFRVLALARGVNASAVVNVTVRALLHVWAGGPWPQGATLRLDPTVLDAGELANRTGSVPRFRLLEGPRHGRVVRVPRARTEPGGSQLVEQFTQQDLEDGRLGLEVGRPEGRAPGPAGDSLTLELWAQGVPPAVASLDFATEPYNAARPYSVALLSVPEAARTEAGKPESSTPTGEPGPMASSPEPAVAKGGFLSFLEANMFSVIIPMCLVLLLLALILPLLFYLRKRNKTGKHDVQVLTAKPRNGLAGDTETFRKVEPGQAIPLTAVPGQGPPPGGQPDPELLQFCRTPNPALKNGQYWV

HMW-MAA (CSPG4)-specific mouse mAb 225.28 (antibody)
% of cells that express CSPG4 [1]: 99.9%
MFI [1]: 917
% of cells that express CSPG4 [2]: 99.9%
MFI [2]: 117
% of cells that express CSPG4 [3]: 99.4%
MFI [3]: 1210
% of cells that express CSPG4 [4]: 99.7%
MFI [4]: 581
% of cells that express CSPG4 [5]: 99.8%
MFI [5]: 493
% of cells that express CSPG4 [6]: 80%
MFI [6]: 437
% of cells that express CSPG4 [7]: 99.9%
MFI [7]: 280
% of cells that express CSPG4 [8]: 99.8%
MFI [8]: 586
% of cells that express CSPG4 [9]: 99.8%
MFI [9]: 572
% of cells that express CSPG4 [10]: 99.6%
MFI [10]: 275
% of cells that express CSPG4 [11]: 99.9%
MFI [11]: 890
% of cells that express CSPG4 [12]: 99.9%
MFI [12]: 607
% of cells that express CSPG4 [13]: 93%
MFI [13]: 55.8
% of cells that express CSPG4 [14]: 88.2%
MFI [14]: 130
% of cells that express CSPG4 [15]: 40.8%
MFI [15]: 274
% of cells that express CSPG4 [16]: 78.4%
MFI [16]: 20.2
